Reference: publication PMC3037030

Substrate: CCCCC/C=C\C/C=C\C/C=C\C/C=C\CCCC(=O)O
Assay: radiometric acyl-CoA synthetase assay
Assay type: biochemical, Rattus norvegicus
Conditions: ATP, Mg2+

B1: Acsl3 (Rattus norvegicus) (protein)
chain: MNNHVSSTPSTMKLKQTIHPILLYFIHFIISLYTILTYIPFYFLCESKQEKPNHIKAKPVSSKPDSAYRSVNSMDGLASVLYPGCDTLDKVFMYAKNKFKDKRLLGTREILNEEDEIQPNGKVFKKVILGHYNWLSYEDVFIRALDFGNGLQMLGQKPKANIAIFCETRAEWMIAAQACFMYNFQLVTLYATLGGPAIVHGLNETEVTNIITSKELLQTKLKDIVSLVPRLRHIITVDGKPPTWSEFPKGVIVHTMAAVQALGVKADVDKKAHSKPLPSDIAVIMYTSGSTGIPKGVMISHSNIIASITGMARRIPRLGEEDVYIGYLPLAHVLELSAELVCLSHGCRIGYSSPQTLADQSSKIKKGSKGDTSVLKPTLMAAVPEIMDRIYKNVMNKVNEMSAFQRNLFILAYNYKMEQISKGCSTPLCDRFVFRNVRRLLGGNIRVLLCGGAPLSATTQRFMNICFCCPVGQGYGLTESTGAGTITEVWDYNTGRVGAPLVCCEIKLKNWEEGGYFNTDKPHPRGEILIGGQNVTMGYYKNEAKTKADFFEDENGQRWLCTGDIGEFDPDGCLKIIDRKKDLVKLQAGEYVSLGKVEAALKNLPLIDNICAYANSYHSYVIGFVVPNQKELTELARTKGFNGTWEELCNSSEMENEVLKVLSEAAISASLEKFEIPLKIRLSPDPWTPETGLVTDAFKLKRKELKTHYQADIERMYGRK
Question: B1 was tested. Which Km did it give?
Answer: 48 µM

Question: And the Vmax?
Answer: 0.008 µmol/min/mg

Question: What about the Vmax/Km of the same protein?
Answer: 3e-05 min⁻¹
